From paper PMC10235082

How the values were obtained:
human FcRn (human) = human FcRn (human) (UniProt P55899); assay: SPR; Biacore T200; FcRn immobilised on CM5 sensor chip, IVIG (from 500 nM) or rhIgG1 Fc (from 250 nM) injected, two-fold serial dilution; regeneration 100 mM Tris-HCl; multicycle kinetics model (methods), steady state equilibrium model (legend of Fig. 4)
[1] = molecular target: human FcγRIIIA F176V (human) (UniProt P08637); assay: SPR; Biacore T200; FcγRs immobilised on CM5 sensor chip, IVIG or rhIgG1 Fc injected; three-fold serial dilution (FcγRIA from 300 nM; FcγRIIA from 20 μM; FcγRIIIA from 3 μM IVIG and 300 nM hIgG1 Fc); regeneration 10 mM glycine; single cycle kinetics model
UniProt P08637, sequence (P08637 17-208 F176V): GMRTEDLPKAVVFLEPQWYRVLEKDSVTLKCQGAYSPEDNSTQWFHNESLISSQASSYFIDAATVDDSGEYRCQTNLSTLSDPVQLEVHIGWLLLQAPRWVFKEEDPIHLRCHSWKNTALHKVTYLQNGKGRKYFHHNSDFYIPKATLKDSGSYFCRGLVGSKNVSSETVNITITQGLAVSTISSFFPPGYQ

human FcγRIA (human) = human FcγRIA (human) (UniProt P12314); assay: as above
UniProt P12314, sequence (P12314 16-292): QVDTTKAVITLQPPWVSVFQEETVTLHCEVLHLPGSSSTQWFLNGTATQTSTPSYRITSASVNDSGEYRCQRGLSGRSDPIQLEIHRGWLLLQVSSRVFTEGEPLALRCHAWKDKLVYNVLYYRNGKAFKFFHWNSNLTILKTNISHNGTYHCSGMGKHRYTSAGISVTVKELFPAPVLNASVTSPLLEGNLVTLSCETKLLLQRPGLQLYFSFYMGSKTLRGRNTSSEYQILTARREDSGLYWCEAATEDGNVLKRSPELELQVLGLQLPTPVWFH

- Kd (human FcRn (human)): 9.09 nM
- Kd [1]: 9.98 nM
- Kd (human FcγRIA (human)): 1.28 nM
Substance: recombinant human IgG1 Fc derived from ALB::hIgG1 Fc genome-edited chickens (domain or fragment)
